Measured values taken from FireProtDB (doi:10.1110/ps.38602).

B1: Ribonuclease HI wild type, P0A7Y4 (protein)
chain: MLKQVEIFTDGSCLGNPGPGGYGAILRYRGREKTFSAGYTRTTNNRMELMAAIVALEALKEHCEVILSTDSQYVRQGITQWIHNWKKRGWKTADKKPVKNVDLWQRLDAALGQHQIKWEWVKGHAGHPENERCDELARAAAMNPTLEDTGYQVEV
B2: Ribonuclease H wild type, P29253 (protein)
chain: MNPSPRKRVALFTDGACLGNPGPGGWAALLRFHAHEKLLSGGEACTTNNRMELKAAIEGLKALKEPCEVDLYTDSHYLKKAFTEGWLEGWRKRGWRTAEGKPVKNRDLWEALLLAMAPHRVRFHFVKGHTGHPENERVDREARRQAQSQAKTPCPPRAPTLFHEEA

Conditions: pH 5.5, CD, NaOAc 20 mM, KCl 50 mM, reversible: yes, whole UniProt chain shown; for denaturant m value / unfolding free energy: 25 °C; for Tm / heat capacity change of unfolding: Thermal
[1] = Escherichia coli (strain K12), GdnHCl
[2] = Escherichia coli (strain K12), Urea
[3] = Thermus thermophilus (strain ATCC 27634 / DSM 579 / HB8), GdnHCl
[4] = Thermus thermophilus (strain ATCC 27634 / DSM 579 / HB8)

Row | Protein | denaturant m value [1] | unfolding free energy [1] | denaturant m value [2] | unfolding free energy [2] | Tm (Escherichia coli (strain K12)) | heat capacity change of unfolding (Escherichia coli (strain K12)) | denaturant m value [3] | unfolding free energy [3] | Tm [4] | heat capacity change of unfolding [4]
1 | B1 | 4.9 kcal/mol/M | 7.6 kcal/mol | 2.1 kcal/mol/M | 9.7 kcal/mol | 66 °C | 2.7 kcal/mol/K |  |  |  | 
2 | B2 |  |  |  |  |  |  | 4.4 kcal/mol/M | 12.2 kcal/mol | 86 °C | 1.8 kcal/mol/K
